Measurements from patent publication US20250382359A1 (BYOMASS, published 2025).

Tests used:
[1] = target: T1, GDF15 (ligand used in the GFRAL/RET cell assays) (UniProt Q99988 197-308, limits assumed); experiment: cell-based or functional assay
T1 sequence (looked up): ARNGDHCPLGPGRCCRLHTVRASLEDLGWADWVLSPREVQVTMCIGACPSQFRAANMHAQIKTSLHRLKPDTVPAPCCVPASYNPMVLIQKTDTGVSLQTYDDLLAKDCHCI

Human GDF15 Fc = target: T2, Human GDF15 Fc (human, UniProt Q99988 195-308, limits assumed, biotinylated (EZ-Link Sulfo-NHS-Biotinylation Kit) in the SPR assay); experiment: BLI Octet; IgG on sensor, 100 nM antigen (avid)
T2 construct: also called human GDF15-Fc fusion; biotinylated Human GDF15 Fc; not shown: Fc part
T2 sequence: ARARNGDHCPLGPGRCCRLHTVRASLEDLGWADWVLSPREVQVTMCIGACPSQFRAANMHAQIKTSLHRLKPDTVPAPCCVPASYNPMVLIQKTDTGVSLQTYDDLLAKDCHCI
Protocol: Briefly, ForteBio affinity measurements were performed by loading IgGs on-line onto AHC sensors. Sensors were equilibrated off-line in assay buffer for 30 min and then monitored on-line for 60 seconds for baseline establishment. Sensors with loaded IgGs were exposed to 100 nM antigen for 3 minutes, and afterwards were transferred to assay buffer for 3 min for off-rate measurement. All kinetics were analyzed using the 1:1 binding model.

Human BMP9 = target: T3, Human BMP9 (human, UniProt Q9UK05 320-429); experiment: BLI Octet; IgG on sensor, 100 nM antigen (avid)
T3 sequence (looked up): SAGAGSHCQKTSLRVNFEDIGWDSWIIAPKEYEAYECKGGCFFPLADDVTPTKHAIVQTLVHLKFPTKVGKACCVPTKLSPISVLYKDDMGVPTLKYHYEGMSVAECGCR

Human BMP10 = target: T4, Human BMP10 (human, UniProt O95393 317-424); experiment: BLI Octet; IgG on sensor, 100 nM antigen (avid)
T4 sequence (looked up): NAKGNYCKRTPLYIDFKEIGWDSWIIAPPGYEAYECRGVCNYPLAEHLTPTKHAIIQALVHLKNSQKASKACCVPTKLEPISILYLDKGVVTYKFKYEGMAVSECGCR

GDF10 = target: T5, GDF10 (UniProt P55107 369-478); experiment: BLI Octet; IgG on sensor, 100 nM antigen (avid)
T5 sequence (looked up): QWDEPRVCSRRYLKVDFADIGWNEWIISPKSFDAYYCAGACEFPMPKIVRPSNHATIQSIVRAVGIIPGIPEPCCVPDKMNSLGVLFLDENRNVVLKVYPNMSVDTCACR

GDNF = target: T6, GDNF (UniProt P39905 78-211); experiment: BLI Octet; IgG on sensor
T6 sequence (looked up): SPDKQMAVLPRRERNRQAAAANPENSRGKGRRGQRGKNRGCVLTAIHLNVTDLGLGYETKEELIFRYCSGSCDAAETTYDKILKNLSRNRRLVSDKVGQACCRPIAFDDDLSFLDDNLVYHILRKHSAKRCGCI

GDF8 = GDF8 (UniProt O14793 267-375); experiment: BLI Octet; IgG on sensor
Human Activin A Fc = target: T7, Human Activin A Fc (human, UniProt P08476 311-426); experiment: BLI Octet; IgG on sensor
T7 construct: not shown: Fc part
T7 sequence (looked up): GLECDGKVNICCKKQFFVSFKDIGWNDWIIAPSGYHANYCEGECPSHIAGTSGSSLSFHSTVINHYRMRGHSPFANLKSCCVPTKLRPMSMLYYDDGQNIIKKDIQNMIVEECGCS

Human Activin B = target: T8, Human Activin B (human, UniProt P09529 293-407); experiment: BLI Octet; IgG on sensor
T8 sequence (looked up): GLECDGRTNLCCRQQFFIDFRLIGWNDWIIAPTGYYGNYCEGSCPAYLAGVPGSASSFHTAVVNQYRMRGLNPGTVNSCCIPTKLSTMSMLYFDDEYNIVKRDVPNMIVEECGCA

GDF11 = target: T9, GDF11 (UniProt O95390 299-407); experiment: BLI Octet; IgG on sensor
T9 construct: Also used as ligand in the Activin 2B receptor/SMAD reporter assay
T9 sequence (O95390 299-407 limits assumed): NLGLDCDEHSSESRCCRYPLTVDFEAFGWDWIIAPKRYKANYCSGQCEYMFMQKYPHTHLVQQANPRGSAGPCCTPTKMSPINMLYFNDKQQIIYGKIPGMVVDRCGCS

GDF15-GFRAL RET pERK IC50 (pM) [1]: 66.7 pM | GDF15-GFRAL-RET Luciferase IC50 (pM) [1]: 97.1 pM | Kd (Human GDF15 Fc): 0.256 nM | binding result (Human BMP9): binds | binding result (Human BMP10): binds | Kd (GDF10): 36.8 nM | binding result (GDNF): no binding (tested: 100 nM) | binding result (GDF8): no binding (tested: 100 nM) | binding result (Human Activin A Fc): no binding (tested: 100 nM) | binding result (Human Activin B): no binding (tested: 100 nM) | binding result (GDF11): no binding (tested: 100 nM)
B1: GDF15 antibody agent Clone G, IgG (antibody, V domains shown)
VH: QVQLVQSGAEVKKPGSSVKVSCKASGGTFQGYAISWARQAPGQGLEWMGGIIPPYATANYAQKFQGRVTITADESTSTAYMELSSLRSEDTAVYYCARGVGELHLDVWGQGTMVTVSS
VL: not shown
